This is an account of results in article PMC2902421, “Molecular cloning and biochemical characterization of a novel erythrose reductase from Candida magnoliae JH110” (Microbial Cell Factories, 2010).

Holding throughout (type): biochemical, Entelexis paramagnoliae
Substrate in data set [1]: O=Cc1ccc([N+](=O)[O-])cc1
Description: purified protein. As to conditions: NADPH in excess, pH 5.5 and 42 °C (given for D-erythrose).

Substrate in data set [2]: NC(=O)C1=CN([C@@H]2O[C@H](COP(=O)(O)OP(=O)(O)OC[C@H]3O[C@@H](n4cnc5c(N)ncnc54)[C@H](OP(=O)(O)O)[C@@H]3O)[C@@H](O)[C@H]2O)C=CC1
The data set is described as follows: purified protein. The conditions noted are these: D-erythrose saturating, pH 5.5, 42 °C, varied: cofactor.

Substrate in data set [3]: NC(=O)c1ccc[n+]([C@@H]2O[C@H](COP(=O)(O)OP(=O)(O)OC[C@H]3O[C@@H](n4cnc5c(N)ncnc54)[C@H](OP(=O)(O)O)[C@@H]3O)[C@@H](O)[C@H]2O)c1
The data set is described as follows: steady-state kinetics; reaction not stated. The conditions noted are these: co-substrate not given; NADP+-dependent erythritol oxidation stated as not observed; varied: cofactor. From the text:
steady-state kinetics; reaction not stated on CmER (C. magnoliae JH110 erythrose reductase; CmER2 in Table 2)

B1: CmER (C. magnoliae JH110 erythrose reductase; CmER2 in Table 2) (Entelexis paramagnoliae) (protein)
chain: MSSTYTLTRLSAPSMVLNSGSQIPAVGYGLWKQQGSEAKDSVRCAIESGYRHLDCATAYQNHKEVGQAIREAGVPRDELWITSKVWGTHFDNPEEGLDDILEELGVEYLDLLLLHLPVAFKRNPEDPKQLRGLPVDHDMKYADVWARMEKLPKSKVRNIGVSNLTVRALDELLQTAKVTPAVNQVEMHPNLPQKKLLDYCKSKGIVVQAYSPLAQGQHENPVVTDIADDLGVSPAQVVLSWGALRGTNILPKSSTPSRIRENLELIQLSDDHMRRIDALARR
notes: N-terminal GST fusion (pGEX-5X-3) in E. coli BL21 with chaperones, GST removed by Factor Xa
For the protein B1, in “purified protein [1]”, the Km (in general, the substrate concentration at which the rate is half of its maximum) was found to be 0.17 ± 0.01 mM; the turnover number (kcat) – broadly, the number of substrate molecules converted per active site and unit of time at saturation – came out at 1.4 ± 0.1 s⁻¹; the kcat/Km – broadly, the second-order rate constant that governs catalysis at low substrate concentration – is 8200 M⁻¹ s⁻¹. Moreover, in the data set “purified protein [2]”, the Michaelis constant (Km) turned out to be 0.016 ± 0.01 mM, the kcat turned out to be 48 ± 2.5 s⁻¹ and the kcat/Km came out at 3e+06 M⁻¹ s⁻¹. Also, in data set [3], the Michaelis-Menten constant (Km) is 0.24 ± 0.04 mM, the catalytic constant (kcat) amounted to 0.84 ± 0.06 s⁻¹ and the kcat/Km worked out at 3500 M⁻¹ s⁻¹.
